These results are taken from patent US20030077273A1.

Assay [1] concerns the target human CD21 on Raji cells (CD21+ human Burkitt's lymphoma cell line) (human) (UniProt P20023). The experiment in a line: cell ELISA on Raji cells, anti-mouse IgG-AP.
Assay [2] shares this target. As to the kind of experiment: flow cytometry on Raji cells, anti-mouse IgG-FITC. A general note: Flow cytometry measures light scatter and fluorescence of single cells or particles in a stream.
Assay [3] has the same target. As to the kind of experiment: flow cytometry, control BSA-coated microspheres on Raji cells, 25 microspheres per cell.
The target is the same in assay [4]. As to the kind of experiment: flow cytometry, control BSA-coated microspheres on Raji cells, 50 microspheres per cell.
Assay [5] has the same target. The experiment in a line: flow cytometry, control BSA-coated microspheres on Raji cells, 100 microspheres per cell.
Assay [6] has as its target recombinant soluble human CD21 (1-2)-Ig fusion protein (human) (UniProt P20023). As to the kind of experiment: direct ELISA, sCD21-coated wells, anti-mouse Ig kappa-AP. Background: ELISA stands for enzyme-linked immunosorbent assay.
For assay [7], the target named is mouse Ig G lambda (isotype of the Ig fusion partner), coated on wells. The experiment in a line: direct ELISA, MoIg-coated control wells, anti-mouse Ig kappa-AP.
In assay [8] the target is human CD21 on Raji cells (CD21+ human Burkitt's lymphoma cell line) (human) (UniProt P20023). As to the kind of experiment: flow cytometry, competition: C3d beads 25:1 on Raji cells with 15 ng HB5.
Assay [9] shares this target. As to the kind of experiment: flow cytometry, competition: C3d beads 25:1 on Raji cells with 30 ng HB5.
Assay [10] shares this target. The experiment in a line: flow cytometry, competition: C3d beads 50:1 on Raji cells with 15 ng HB5.
Assay [11] has the same target. As to the kind of experiment: flow cytometry, competition: C3d beads 50:1 on Raji cells with 30 ng HB5.
Assay [12] shares this target. The experiment in a line: flow cytometry, competition: C3d beads 100:1 on Raji cells with 15 ng HB5.
The target is the same in assay [13]. As to the kind of experiment: flow cytometry, competition: C3d beads 100:1 on Raji cells with 30 ng HB5.

Chain of human CD21 on Raji cells (CD21+ human Burkitt's lymphoma cell line) (human) (P20023 21-1033): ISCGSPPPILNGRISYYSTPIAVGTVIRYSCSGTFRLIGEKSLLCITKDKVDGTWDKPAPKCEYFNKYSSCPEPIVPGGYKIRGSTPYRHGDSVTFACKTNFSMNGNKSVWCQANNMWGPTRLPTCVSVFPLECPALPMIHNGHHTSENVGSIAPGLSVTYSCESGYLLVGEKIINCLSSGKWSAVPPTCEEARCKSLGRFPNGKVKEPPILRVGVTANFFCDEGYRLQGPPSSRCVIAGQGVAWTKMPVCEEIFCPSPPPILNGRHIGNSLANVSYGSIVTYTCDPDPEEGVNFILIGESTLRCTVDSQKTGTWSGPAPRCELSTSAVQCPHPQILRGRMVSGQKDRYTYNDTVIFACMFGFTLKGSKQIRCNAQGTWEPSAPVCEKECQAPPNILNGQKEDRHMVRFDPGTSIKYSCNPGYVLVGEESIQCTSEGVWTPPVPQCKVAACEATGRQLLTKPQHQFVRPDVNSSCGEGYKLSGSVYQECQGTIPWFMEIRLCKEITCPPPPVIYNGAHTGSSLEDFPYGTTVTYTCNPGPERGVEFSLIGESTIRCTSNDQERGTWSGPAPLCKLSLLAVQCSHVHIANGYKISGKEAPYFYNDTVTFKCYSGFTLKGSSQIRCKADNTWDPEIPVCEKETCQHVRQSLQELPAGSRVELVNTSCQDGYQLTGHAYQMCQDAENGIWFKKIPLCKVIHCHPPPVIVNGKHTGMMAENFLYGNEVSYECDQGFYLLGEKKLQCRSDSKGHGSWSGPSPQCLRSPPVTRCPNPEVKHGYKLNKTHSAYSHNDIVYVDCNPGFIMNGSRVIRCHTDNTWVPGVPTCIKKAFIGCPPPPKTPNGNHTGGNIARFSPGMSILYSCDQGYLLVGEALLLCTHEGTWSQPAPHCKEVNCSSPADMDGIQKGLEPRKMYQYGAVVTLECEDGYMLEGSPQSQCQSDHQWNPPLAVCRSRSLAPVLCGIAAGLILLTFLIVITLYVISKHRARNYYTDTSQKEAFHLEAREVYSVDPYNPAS
Chain of recombinant soluble human CD21 (1-2)-Ig fusion protein (human) (P20023 21-148): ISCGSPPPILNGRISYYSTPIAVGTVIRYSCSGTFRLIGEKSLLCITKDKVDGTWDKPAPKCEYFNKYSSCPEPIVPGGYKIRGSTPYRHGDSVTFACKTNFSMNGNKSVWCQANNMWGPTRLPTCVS

As for Mouse IgG (control) (antibody), in assay [1], the OD 550 nm turned out to be 0.072 OD 550 nm.
“anti-human CD21 mAb BE-5 (BioSource International) (antibody)”: the OD 550 nm in [1] was 0.546 OD 550 nm. The substance also showed a Mean Fluorescent Index (MFI) in [2] of 85 MFI.
The substance anti-human CD21 mAb Bly-4 (antibody) yielded an OD 550 nm in assay [1] of 1.17 OD 550 nm.
For “BSA coated on 1 um fluorescent microspheres (from UniProt P02769 25-607)”, the % Cells Bound in [3] was 1.5%; in assay [4] it was 6.83%; in [5], 22.6%.
With “OKB7 (mouse anti-human CD21, Ortho Diagnostics) (antibody)”, in [2], the Mean Fluorescent Index (MFI) was 123 MFI. Moreover, the OD in [6] is 0.44 OD; in [7] it was 0.096 OD.
Substance “mouse anti-human CD21 mAb HB5 (BD Pharmingen) (antibody)” registered a Mean Fluorescent Index (MFI) in assay [2] of 117 MFI. Further, the % Cells Bound (by C3d beads in presence of mAb) in assay [8] came out at 19.4%; in assay [9], 15.4%; in assay [10], 42.4%; in [11], 39.8%; in assay [12], 69.3%; in assay [13] it was 67.2%. The % Inhibition by mAb in [8] was 11.8%; in assay [9] it was 29.7%; in [10] it was 15.3%; in assay [11] it was 20.5%; in assay [12], 6.5%; in [13], 9.4%.
